# Results taken from patent US11946041B2, “Modification of polypeptides” (BicycleRD Limited, priority 2017, dated 2024).
# Tests used:
# CCR4 [1] = target: T1, CCR4 (Homo sapiens, UniProt P51679); assay: PathHunter eXpress CCR4 CHO-K1 β-Arrestin GPCR Assay, agonist format; type: cell-based
# T1 construct: host or cells: CHO-K1
# T1 sequence (P51679 1-360): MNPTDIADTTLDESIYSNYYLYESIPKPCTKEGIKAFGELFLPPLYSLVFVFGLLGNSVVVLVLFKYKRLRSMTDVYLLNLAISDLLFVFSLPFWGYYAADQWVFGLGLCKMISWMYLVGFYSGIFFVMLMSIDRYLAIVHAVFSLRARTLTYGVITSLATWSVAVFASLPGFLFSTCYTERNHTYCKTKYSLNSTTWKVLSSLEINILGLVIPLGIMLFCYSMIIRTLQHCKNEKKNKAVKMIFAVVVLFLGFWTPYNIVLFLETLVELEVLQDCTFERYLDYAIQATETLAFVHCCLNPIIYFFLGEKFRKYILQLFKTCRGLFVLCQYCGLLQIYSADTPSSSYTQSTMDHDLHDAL
# Experimental: (§1) The aim of the present experiment was to analyze if if these peptides are functional using a Discoverx Assay, the Beta-Arrestin recruitment assay, to identify agonism or antagonism in the selected peptides.
# (§2) Standard protocols used: • PathHunter® eXpress CCR4 CHO-K1 β-Arrestin GPCR Assay. 100 dp (1×96-well)
# (§3) The experiment was carried using the manufacturer instructions.
# The concentration was increased to test for response at high concentration.
# CCR4 [2] = target: T1, CCR4; assay: PathHunter eXpress CCR4 CHO-K1 β-Arrestin GPCR Assay, antagonist format with CCL22; type: cell-based; details: for antagonist for CCR4: 1 nM CCL22
# Experimental: as §1, §2, §3
# We therefore used the assay in an antagonist format, using 10 nM CCL22.
# We repeated this experiment lowering the concentration of CCL22 from 10 nM to 1 nM to show a full inhibition curve.
sequence,measurement,setting,value
"ACQLTCLPPPRQPGCA [24-15-00-N001, bicyclic peptide ligand, TATA scaffold, from CCR4 cell-based selection]",Raw Data,CCR4 [1]; 0.006 nM,28566
same,Raw Data,CCR4 [1]; 0.02 nM,27298
same,Raw Data,CCR4 [1]; 0.06 nM,26888
same,Raw Data,CCR4 [1]; 0.17 nM,28025
same,Raw Data,CCR4 [1]; 0.51 nM,31189
same,Raw Data,CCR4 [1]; 1.5 nM,30670
same,Raw Data,CCR4 [1]; 4.6 nM,27635
same,Raw Data,CCR4 [1]; 13.9 nM,25509
same,Raw Data,CCR4 [1]; 41.7 nM,24463
same,Raw Data,CCR4 [1]; 125 nM,22916
same,Raw Data,CCR4 [1]; 375 nM,24222
same,Raw Data,"CCR4 [1]; high concentration, 0.001 uM",10900
same,Raw Data,"CCR4 [1]; high concentration, 0.003 uM",11501
same,Raw Data,"CCR4 [1]; high concentration, 0.008 uM",12079
same,Raw Data,"CCR4 [1]; high concentration, 0.023 uM",12121
same,Raw Data,"CCR4 [1]; high concentration, 0.1 uM",13265
same,Raw Data,"CCR4 [1]; high concentration, 0.2 uM",13225
same,Raw Data,"CCR4 [1]; high concentration, 0.6 uM",13586
same,Raw Data,"CCR4 [1]; high concentration, 1.9 uM",13457
same,Raw Data,"CCR4 [1]; high concentration, 5.6 uM",13067
same,Raw Data,"CCR4 [1]; high concentration, 16.7 uM",13469
same,Raw Data,"CCR4 [1]; high concentration, 50 uM",10917
same,range of antagonism activity,CCR4 [2],micromolar range
same,antagonist for CCR4,CCR4 [2],antagonist
same,Raw Data,"CCR4 [2]; 1 nM CCL22, 0.001 uM",244512
same,Raw Data,"CCR4 [2]; 1 nM CCL22, 0.003 uM",269008
same,Raw Data,"CCR4 [2]; 1 nM CCL22, 0.008 uM",278839
same,Raw Data,"CCR4 [2]; 1 nM CCL22, 0.023 uM",265078
same,Raw Data,"CCR4 [2]; 1 nM CCL22, 0.1 uM",267763
same,Raw Data,"CCR4 [2]; 1 nM CCL22, 0.2 uM",233858
same,Raw Data,"CCR4 [2]; 1 nM CCL22, 0.6 uM",230668
same,Raw Data,"CCR4 [2]; 1 nM CCL22, 1.9 uM",210573
same,Raw Data,"CCR4 [2]; 1 nM CCL22, 5.6 uM",168855
same,Raw Data,"CCR4 [2]; 1 nM CCL22, 16.7 uM",47343
same,Raw Data,"CCR4 [2]; 1 nM CCL22, 50 uM",37690
same,IC80,CCR4 [2]; 10 nM CCL22,14 µM
same,Raw Data,"CCR4 [2]; 10 nM CCL22, 0.001 uM",166495
same,Raw Data,"CCR4 [2]; 10 nM CCL22, 0.003 uM",152456
same,Raw Data,"CCR4 [2]; 10 nM CCL22, 0.008 uM",159966
same,Raw Data,"CCR4 [2]; 10 nM CCL22, 0.023 uM",163145
same,Raw Data,"CCR4 [2]; 10 nM CCL22, 0.1 uM",162443
same,Raw Data,"CCR4 [2]; 10 nM CCL22, 0.2 uM",160790
same,Raw Data,"CCR4 [2]; 10 nM CCL22, 0.6 uM",164042
same,Raw Data,"CCR4 [2]; 10 nM CCL22, 1.9 uM",149995
same,Raw Data,"CCR4 [2]; 10 nM CCL22, 5.6 uM",119202
same,Raw Data,"CCR4 [2]; 10 nM CCL22, 16.7 uM",94688
same,Raw Data,"CCR4 [2]; 10 nM CCL22, 50 uM",55746
"ACQLTCLTPARQPGCA [24-14-00-N001, bicyclic peptide ligand, TATA scaffold, from CCR4 cell-based selection]",Raw Data,CCR4 [1]; 0.006 nM,28548
same,Raw Data,CCR4 [1]; 0.02 nM,25603
same,Raw Data,CCR4 [1]; 0.06 nM,30232
same,Raw Data,CCR4 [1]; 0.17 nM,28531
same,Raw Data,CCR4 [1]; 0.51 nM,32968
same,Raw Data,CCR4 [1]; 1.5 nM,30785
same,Raw Data,CCR4 [1]; 4.6 nM,27510
same,Raw Data,CCR4 [1]; 13.9 nM,24521
same,Raw Data,CCR4 [1]; 41.7 nM,24892
same,Raw Data,CCR4 [1]; 125 nM,21899
same,Raw Data,CCR4 [1]; 375 nM,20214
same,Raw Data,"CCR4 [1]; high concentration, 0.001 uM",10817
same,Raw Data,"CCR4 [1]; high concentration, 0.003 uM",11788
same,Raw Data,"CCR4 [1]; high concentration, 0.008 uM",12385
same,Raw Data,"CCR4 [1]; high concentration, 0.023 uM",12607
same,Raw Data,"CCR4 [1]; high concentration, 0.1 uM",12143
same,Raw Data,"CCR4 [1]; high concentration, 0.2 uM",13151
same,Raw Data,"CCR4 [1]; high concentration, 0.6 uM",12839
same,Raw Data,"CCR4 [1]; high concentration, 1.9 uM",12725
same,Raw Data,"CCR4 [1]; high concentration, 5.6 uM",12720
same,Raw Data,"CCR4 [1]; high concentration, 16.7 uM",12239
same,Raw Data,"CCR4 [1]; high concentration, 50 uM",13314
same,antagonist for CCR4,CCR4 [2],antagonist
same,Raw Data,"CCR4 [2]; 1 nM CCL22, 0.001 uM",240299
same,Raw Data,"CCR4 [2]; 1 nM CCL22, 0.003 uM",222439
same,Raw Data,"CCR4 [2]; 1 nM CCL22, 0.008 uM",212749
same,Raw Data,"CCR4 [2]; 1 nM CCL22, 0.023 uM",212035
same,Raw Data,"CCR4 [2]; 1 nM CCL22, 0.1 uM",215827
same,Raw Data,"CCR4 [2]; 1 nM CCL22, 0.2 uM",201484
same,Raw Data,"CCR4 [2]; 1 nM CCL22, 0.6 uM",200525
same,Raw Data,"CCR4 [2]; 1 nM CCL22, 1.9 uM",198268
same,Raw Data,"CCR4 [2]; 1 nM CCL22, 5.6 uM",171795
same,Raw Data,"CCR4 [2]; 1 nM CCL22, 16.7 uM",116828
same,Raw Data,"CCR4 [2]; 1 nM CCL22, 50 uM",102610
same,Raw Data,"CCR4 [2]; 10 nM CCL22, 0.001 uM",163937
same,Raw Data,"CCR4 [2]; 10 nM CCL22, 0.003 uM",138339
same,Raw Data,"CCR4 [2]; 10 nM CCL22, 0.008 uM",156373
same,Raw Data,"CCR4 [2]; 10 nM CCL22, 0.023 uM",159753
same,Raw Data,"CCR4 [2]; 10 nM CCL22, 0.1 uM",168602
same,Raw Data,"CCR4 [2]; 10 nM CCL22, 0.2 uM",151985
same,Raw Data,"CCR4 [2]; 10 nM CCL22, 0.6 uM",158845
same,Raw Data,"CCR4 [2]; 10 nM CCL22, 1.9 uM",143688
same,Raw Data,"CCR4 [2]; 10 nM CCL22, 5.6 uM",150686
same,Raw Data,"CCR4 [2]; 10 nM CCL22, 16.7 uM",132736
same,Raw Data,"CCR4 [2]; 10 nM CCL22, 50 uM",138731
"ACQTLCNTAEDIRCA [24-16-00-N001, bicyclic peptide ligand, TBMB scaffold, from CCR4 cell-based selection]",Raw Data,CCR4 [1]; 0.006 nM,23153
same,Raw Data,CCR4 [1]; 0.02 nM,23757
same,Raw Data,CCR4 [1]; 0.06 nM,25748
same,Raw Data,CCR4 [1]; 0.17 nM,25062
same,Raw Data,CCR4 [1]; 0.51 nM,25030
same,Raw Data,CCR4 [1]; 1.5 nM,24736
same,Raw Data,CCR4 [1]; 4.6 nM,22899
same,Raw Data,CCR4 [1]; 13.9 nM,20756
same,Raw Data,CCR4 [1]; 41.7 nM,20583
same,Raw Data,CCR4 [1]; 125 nM,20012
same,Raw Data,CCR4 [1]; 375 nM,20361
same,Raw Data,"CCR4 [1]; high concentration, 0.001 uM",10927
same,Raw Data,"CCR4 [1]; high concentration, 0.003 uM",11906
same,Raw Data,"CCR4 [1]; high concentration, 0.008 uM",12502
same,Raw Data,"CCR4 [1]; high concentration, 0.023 uM",12701
same,Raw Data,"CCR4 [1]; high concentration, 0.1 uM",13482
same,Raw Data,"CCR4 [1]; high concentration, 0.2 uM",13403
same,Raw Data,"CCR4 [1]; high concentration, 0.6 uM",14951
same,Raw Data,"CCR4 [1]; high concentration, 1.9 uM",14247
same,Raw Data,"CCR4 [1]; high concentration, 5.6 uM",14263
same,Raw Data,"CCR4 [1]; high concentration, 16.7 uM",13237
same,Raw Data,"CCR4 [1]; high concentration, 50 uM",13817
same,Raw Data,"CCR4 [2]; 1 nM CCL22, 0.001 uM",244145
same,Raw Data,"CCR4 [2]; 1 nM CCL22, 0.003 uM",250550
same,Raw Data,"CCR4 [2]; 1 nM CCL22, 0.008 uM",249215
same,Raw Data,"CCR4 [2]; 1 nM CCL22, 0.023 uM",247868
same,Raw Data,"CCR4 [2]; 1 nM CCL22, 0.1 uM",246609
same,Raw Data,"CCR4 [2]; 1 nM CCL22, 0.2 uM",225038
same,Raw Data,"CCR4 [2]; 1 nM CCL22, 0.6 uM",213774
same,Raw Data,"CCR4 [2]; 1 nM CCL22, 1.9 uM",213016
same,Raw Data,"CCR4 [2]; 1 nM CCL22, 5.6 uM",186217
same,Raw Data,"CCR4 [2]; 1 nM CCL22, 16.7 uM",150731
same,Raw Data,"CCR4 [2]; 1 nM CCL22, 50 uM",107480
same,Raw Data,"CCR4 [2]; 10 nM CCL22, 0.001 uM",155442
same,Raw Data,"CCR4 [2]; 10 nM CCL22, 0.003 uM",169611
same,Raw Data,"CCR4 [2]; 10 nM CCL22, 0.008 uM",142089
same,Raw Data,"CCR4 [2]; 10 nM CCL22, 0.023 uM",158472
same,Raw Data,"CCR4 [2]; 10 nM CCL22, 0.1 uM",157585
same,Raw Data,"CCR4 [2]; 10 nM CCL22, 0.2 uM",159872
same,Raw Data,"CCR4 [2]; 10 nM CCL22, 0.6 uM",147765
same,Raw Data,"CCR4 [2]; 10 nM CCL22, 1.9 uM",143871
same,Raw Data,"CCR4 [2]; 10 nM CCL22, 5.6 uM",140714
same,Raw Data,"CCR4 [2]; 10 nM CCL22, 16.7 uM",167890
same,Raw Data,"CCR4 [2]; 10 nM CCL22, 50 uM",138655
